Assay: label from the status in PepcDB records

Row | Sequence | protein production
1 | MSEGFSSSSIQELYQSLKEITNNADVELFEDRITKLDFESTDEPKHANDIIKDRFLRPSNALPWSLLDMVQDVPHTSSPEDCSGKLDYKELLKVPDPINRTSYQFKRTGLEGKISGYKEEVDLKEVANANASNSLSITRSINHNQNSVRGSTAQLPFTPGGIPMKSVKTDSEQNGSSTMANATKLLHKDGQGLFDIPEGMNRGIKPMDSPAENEDQNGQFKELKQLNEIDNELDIRIEANEAKLKEEEKSAKSISEEIMEEATEETTADNADDAEIDELLPIGIDFGRTKPVSKSVPVKKEWAHVVDLNHKIENFDELIPNPARSWPFELDTFQKEAVYHLEQGDSVFVAAHTSAGKTVVAEYAIAMAHRNMTKTIYTSPIKALSNQKFRDFKETFDDVNIGLITGDVQINPDANCLIMTTEILRSMLYRGADLIRDVEFVIFDEVHYVNDQDRGVVWEEVIIMLPQHVKFILLSATVPNTYEFANWIGRTKQKNIYVISTPKRPVPLEINIWAKKELIPVINQNSEFLEANFRKHKEILNGESAKGAPSKTDNGRGGSTARGGRGGSNTRDGRGGRGNSTRGGANRGGSRGAGAIGSNKRKFFTQDGPSKKTWPEIVNYLRKRELLPMVVFVFSKKRCEEYADWLEGINFCNNKEKSQIHMFIEKSITRLKKEDRDLPQILKTRSLLERGIAVHHGGLLPIVKELIEILFSKGFIKVLFATETFAMGLNLPTRTVIFSSIRKHDGNGLRELTPGEFTQMAGRAGRRGLDSTGTVIVMAYNSPLSIATFKEVTMGVPTRLQSQFRLTYNMILNLLRIEALRVEEMIKYSFSENAKETLQPEHEKQIKVLQEELQTIEYKSCEICDNDIEKFLELMLAYKEATVNLMQEMVKSPSILHILKEGRLVAFRDPNDCLKLGFVFKVSLKDAVCVIMTFTKPYKLPNGEPNHLIYFPKADGYRRRNFPKFQKTDFYMEEVPVTAIEVITKRKFAAPLGKVIKKDVAALNEFNAETNNILDGKTLKEAINIEKQGLKIHQILLDRTNIRDEIFKLKSIKCPNLSQHIVPKFKAHVIKKKIEELYHLMSDQNLSLLPDYEKRLAVLKDTEFIDQNHNVLLKGRVACEINSGYELVLTELILDNFLGSFEPEEIVALLSVFVYEGKTREEEPPIVTPRLAKGKQRIEEIYKKMLCVFNTHQIPLTQDEAEFLDRKRFAMMNVVYEWARGLSFKEIMEMSPEAEGTVVRVITWLDEICREVKTASIIIGNSTLHMKMSRAQELIKRDIVFAASLYL | failed
2 | MTDQTKPSWTADRGADLLGALFFLTRLPTPTTHTPPPFTRAVWAFPLAGALVGLIGALAVGGAQALGLSPTLAALLGVSVMALVTGAMHEDAVADIADGFGGGRTRERVLEIMRDSRVGAFGVTALVLVLALRVAALAALAGGPWAMAALVCAAGLGRGAAVLMLGLLPPARTDGLGASFGRPQQASLAFALILCLVLAVVLLPGAAPAVALVGMVAPTLYLAWRAKVRIGGQTGDVAGAAALIGETLALVGLSAMLGAAP | failed
3 | MSLSALESSSRFEVRYFFERALECYKPFSDTVLLLPCTARKPYLTSRTHRALRSKVKVNVNEIIISSPLVVPREFELLYPAVNYDTPVTGHWSEEEVSFVAGWLKRFIEKGGFRKVVAHVTGGYRKVVERVEDEVEAEVVYTAEKDVLSDESIERLKQEIESKGKVDLYRRILEHMLSYQFGITWSGKVAGRYPELELLEGKKRLARVDRIYGMLDIYEKIAAYLLEKNIYTVEIGDFEVKGTIFAGGVLRADEKIRPNDVVVFHNSRIFGVGLAAMSGKEMAGSEKGIAINVKRKFSEGHHHHHH | not failed
4 | MQRVEEVFARREPELAPMAEPAPQPQVRQEPLPEVDQAYIHNYVETSGQQDIRADFRDDAGAVAEVFDVHSRQPRAAEPVVYQQAAPQVAPQLAWEEPQAIEPSQPEWHAMPELPADVSSNISSDAHAYAPEPQAFDLADEVEIAVAEAAPAPVSVRPPAHGGRSSLEFSSLRLPLANFGARRDVSAVDPRRVEPRSELYPAASRIEPQVEPAPAVVQAEETAPSFAQPVAEVFTPAAEPLAPAIAERPAAKNLSPMDELIYGVAQYSIPERGEAQPVKTEPVAQAAKVEPPAVAAAPAKAAPVAAAVPASPIEEPDFTDFTGFNDDDFELALDDLDLDLDLSEIAEAEVAPAPQPVRPQPATPIAAVAPQPVRHEPAPQPRPAPVVAAAPIAAAPVVAAPVQPRPVAAQPAVPQTLESLPFDPSQIGETEEHPETIIEMDVPELPVGVFEPKPAARRHEEDLDIDTELATLFAPAVAGGLDRHKHAENRGAAQARPAPAPEEADEFERALEEDFRRSMQEAAASRGNAPRDAETYVDHQAAYRDEDERGGRRWIMPVAAAIGLVLIGGGVYALISGGSSGTGSNGAPVIISADNDPMKVVPENPGGRVVPNQDKAVYDRVAGGAAADPKQPALISSNEKPVDVVQRTLIPEQLPLEGENDADMEAAGTPVGETEDPRLLSPEEKAAHNEGAGATGVSPRKVRTMIVKPDGTLVAQEVDAPAAQPPKADKVAELAAPQTAKPGEGAPAVIAASRVPVAPEQAQPQASTPAAAKPSTQSAAPLPAARPSSQPANVVATVTNQGNVRPATTAPAQAAQQQTAAATPAATSTPSAGGYYIQIASLPSQAEAQKSYQNMSAKFGSVIGGRGVDIKAAEIAGKGTFYRVRIPAGDKNEAVALCEKFRSAGGSCLVAR | failed
5 | GTAYWKNPDQFTAFNTGLHALLREKSYNFFLLGEPRADIYGDNPIGGEASQGMERLPFNTINKENVGISNYGDMYKIINQINQMIAKTTETTILTEATQNYYLGEAYGMRAYLYFHLLRSWGDVVLYLDYTEGQNLDLSNITKGVSPATEVMEQIKKDIQASENAFGSDYSFKLGRHFWSAAATQMLKGEAYLWSGRQMNGGNSDYTIAKNAFENVKKADVGLVTSSFKDIFSFENKKNKEMIFTIHNGKDEYEMWGGYYRMRLIPAQDKMVKIYCDENGNSFVGTPDAQLNGLTQLQVRREFYFKGFRNNDTRWTTSLKAVYKKDAQGVVSYFGPITYKFQGTMLEGGSTRSFLDDFPIYRYADCLLQLAMAKVLLGEDPTEEINAVRERAYGSKYFNEHKAEIAYPNDNDPEFYTDNKWMKPDNAGALEAILKERLREFMFEGKRWYDIRLLGWDYVHQYSSAEQSRLLWPIDAGTLTNNSALKQTPGYE | not failed
6 | MDEKLVKEVIFSFREVQRKTHHVLAEEAANREITTTQLLAIRELQKESDLTLGELAERMKLGKSTVSGIVDRLVKAGFLKRTRNESNRRALSLELTEKGATKAAETYHVFFNRLEPILEIGEERLKEMLEMHQEIITILEREGARD | failed
7 | EQNSKEKFKQLFRVLEDTFARPLSPYEIETLNQWIDVDKHDSAIIQAALDEANSLNKLSFKYMDRILLNWKKNNV | failed
8 | MEKADIEAIFARSRFISAMNLEILDIDHAGSRFSVRMPLQDTYERGAPGTKQFHGGALAALIDVVGDFAIGMLVGGGVPTMNLRIDYLRPAVGDYVDGVAVVRKAGKSAAVVDIDILCPAGKLVAIGRGTYVPITGLEHHHHHH | failed
9 | MIEGIIEEIRTNGSFLITTHENPDGDAVGSSLALAGYLRRLGKDVTIHFCDPVPDLYAFLPLAEEVTRTVPDRDYDICFVLDVGEFRRAGKQIAECKRIKKFINIDHHLTSDNFGFINYIDPKAAATGILVHRIITGAGDVVGYETALCLYTAIITDTGSFRYSNANPEAFAIAGELVSTGINTWSIAEKLYESQPRERLELLALALSTLTISPRGEYASITVTLDMYNKTGASAELTDGFVNYPRSIRGVEVSVFFREINPGLFKVGFRSKGKIDVSRIAAAFGGGGHHNAAGATMNGSLEGIKATLFSHLESTLLEHHHHHH | not failed
10 | TRMAPVIMVPGSSASQNRFDSLITELGKETPKKHSVLKLTVQTDGTIKYSGSIAANDNEPFIVIGFANNRDGKANIDKQAVWLNTAFKALVKTYHFNHFYALGHSNGGLIWTLFLERYLKESPKVHIDRLMTIASPYNMESTSTTAKTSMFKELYRYRTGLPESLTVYSIAGTENYTSDGTVPYNSVNYGKYIFQDQVKHFTEITVTGANTAHSDLPQNKQIVSLIRQYLLAETMPDKVRQKNAQRVQN | not failed
11 | MDVEKIPGSVCLVAPHANANPTWPADLAWVKQVLFRMGIKVVATLTHRTPIAEIENIASAETSLLLSHDAGQKAADYLSATFGIEQVCKGIPLEHHHHHH | failed
12 | MRLINTTSSHPELVRNQLQNTDAKLVEVYSAGNTDVVFTKAPKHYELLISNKYRAIKDEELEAIREFFLKRKIDQSIIIQEQMKSLHTAKLIEISYPTTA | failed
13 | MDFSDLDYSDAGDSGWTMYLGHSSSVSLHHFDYHNGETKQEHDEDSSMVSDASSGPPYYCEETVHEDHLQQNTQYWCKSKSKNKNKNKKKVHEEQGYSERFNSSFDDTASSLEKVNSGFLQQAFPVDKLALDNQGGDNQRKRRG | failed
14 | MKKVRFLLLAAMVAMFTGCQKEVAEQELDNNKPTPTGDTRIIIEGEGMIGPVTRSSDGKVEFEGGYATGAGLYNGDAQPKVAAHPDAGYEVNYFYGGPENELHRYDYAQSGSSTFDVKLKGEDHTFRCGFKEKKRNLTVNTGTGGSVSPAGTNSYRVEKAISITATPDSGYEFAGWTITEGDVTIENPGSPATTATLHNDNSTITANFKSGAELVFTVRASANKIVPMPVLGSGPYIIDYGDGTVAQEVDLRAPGYTQYPGSYHTYSADGEYTVTIKGPAATAFSFRGTRNSDLQYTNPCPAKSILKNTIDISCVTSLENAFSGMKSLESIKCDLFESCKGRVTTCANIFDQCTNLHTIYNGLFEGFDKCTDFSLAFHYTALNSIPANTFRGCSSAVKFNSTFSAIPNILSIPAGLFDDCVNAQEFASTFELLNISTVPERLFAKCVKATFFRGTFRQSHVTTVPGNVFENCRAIENVSSCFENCSWITSLPEMWNTSLYPKIKTYNAFAKNCNKASNYSAVPAAWK | failed
15 | MAALAEEQTEVAVKLEPEGPPTLLPPQAGDGAGEGSGGTPNNGPNGGGGGNVAVAAAAGGDGGTPKPGVAVSAAAPAGAAPVPAAPAEAGAPHDRQTLLAVLQFLRQSNLREAEEALRREARLLEEAVAGSGAPGELDGAGAEAASALLSRVTASVPGSAAPEPPGTGASVTSVFSGSASGPAAPGKVASVAVEDQPDVSAVLSAYNQQGDPTMYEEYYSGLKHFIECSLDCHRAELSQLFYPLFVHMYLELVYNQHENEAKSFFEKFHGDQECYYQDDLRVLSSLTKKEHMKGNETMLDFRTSKFVLRISRDSYQLLKRHLQEKQNNQIWNIVQEHLYIDIFDGMPRSKQQIDAMVGSLAGEAKREANKSKVFFGLLKEPEIEVPLDDEDEEGENEEGKPKKKKPKKDSIGSKSKKQDPNAPPQNRIPLPELKDSDKLDKIMNMKETTKRVRLGPDCLPSICFYTFLNAYQGLTAVDVTDDSSLIAGGFADSTVRVWSVTPKKLRSVKQASDLSLIDKESDDVLERIMDEKTASELKILYGHSGPVYGASFSPDRNYLLSSSEDGTVRLWSLQTFTCLVGYKGHNYPVWDTQFSPYGYYFVSGGHDRVARLWATDHYQPLRIFAGHLADVNCTRFHPNSNYVATGSADRTVRLWDVLNGNCVRIFTGHKGPIHSLTFSPNGRFLATGATDGRVLLWDIGHGLMVGELKGHTDTVCSLRFSRDGEILASGSMDNTVRLWDAVKAFEDLETDDFTTATGHINLPENSQELLLGTYMTKSTPVVHLHFTRRNLVLAAGAYSPQ | failed
16 | MQAVHGRSRKPADPAYQAGLAEELRQSYGRAGLIELYGRFATGDGVVDSLMRKAIWQAITRRCGEGLQVASGAGFKHPETFEIGDGVFIGAQAYIQGRYDGTCVIGDNVWIGPMAYFDARDLVIEDSVGWGPGAKVLGSTHTALPIDVPIIRTDLEIRPVRICAEADIGTNATILPGVTIGKGAIVGAGAVVVSDVEPFSVAAGVPAKFIRWRSENDPMTNMSREGRS | failed
17 | MELSRGASAPDPDDVRPLKPCLLRRNHSRDQHGVAASSLEELRSKACELLAIDKSLTPITLVLAEDGTIVDDDDYFLCLPSNTKFVALACNEKWTYNDSDGGTAWVSQESFEADEPDSRAGVKWKNVARQLKEDLSSIILLSEEDLQALIDIPCAELAQELCQSCATVQGLQSTLQQVLDQREEARQSKQLLELYLQALEKEGNILSNQKESKAALSEELDAVDTGVGREMASEVLLRSQILTTLKEKPAPELSLSSQDLESVSKEDPKALAVALSWDIRKAETVQQACTTELALRLQQVQSLHSLRNLSARRSPLPGEPQRPKRAKRDSS | not failed
